# Experiments:
# [1] = target: NTS1-7l, MBP and TrxA-H10 fusion (rat) (UniProt P20789); assay: radioligand binding; saturation binding of 1 pM to 10 nM [^3H]-NT to intact E. coli cells expressing the receptor; TEBB buffer, no detergents, 2 hours on ice, GF/B filters; apparent KD, one-site with ligand depletion
# [2] = target: NTS1-7o, MBP and TrxA-H10 fusion (rat) (UniProt P20789); assay: as above
# [3] = target: SR142948; assay: competition binding assay against [3H]-NT on intact E. coli cells; conditions: 5 nM agonist [3H]-NT
# [4] = target: [^3H]-neurotensin; assay: saturation binding assay on intact E. coli cells
# wild-type NTS1 (N-terminally truncated rat neurotensin type I receptor starting at Thr43), MBP and TrxA-H10 fusion (from UniProt P20789) A86L; F358A, sequence (P20789 whole entry A86L/F358A, looked up, the tested form may be a part): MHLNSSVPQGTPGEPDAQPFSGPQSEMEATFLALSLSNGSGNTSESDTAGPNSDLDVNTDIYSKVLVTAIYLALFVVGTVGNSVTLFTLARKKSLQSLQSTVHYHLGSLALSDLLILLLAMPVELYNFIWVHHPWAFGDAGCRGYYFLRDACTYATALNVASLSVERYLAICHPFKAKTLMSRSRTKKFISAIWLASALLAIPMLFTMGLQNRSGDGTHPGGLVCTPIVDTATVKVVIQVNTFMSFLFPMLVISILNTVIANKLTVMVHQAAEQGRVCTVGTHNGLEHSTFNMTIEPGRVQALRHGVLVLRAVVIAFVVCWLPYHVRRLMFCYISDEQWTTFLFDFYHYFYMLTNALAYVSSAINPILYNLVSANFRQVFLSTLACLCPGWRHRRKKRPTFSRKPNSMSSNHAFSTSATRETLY
# wild-type NTS1 (N-terminally truncated rat neurotensin type I receptor starting at Thr43), MBP and TrxA-H10 fusion (from UniProt P20789) NTS1-7l, sequence (P20789 whole entry, looked up, change not shown, the tested form may be a part): as the sequence (P20789 whole entry A86L/F358A, looked up, the tested form may be a part) above, with L86A, A358F counted along it
# wild-type NTS1 (N-terminally truncated rat neurotensin type I receptor starting at Thr43), MBP and TrxA-H10 fusion (from UniProt P20789) NTS1-7o, sequence (P20789 whole entry, looked up, change not shown, the tested form may be a part): as the sequence (P20789 whole entry A86L/F358A, looked up, the tested form may be a part) above, with L86A, A358F counted along it
# wild-type NTS1 (N-terminally truncated rat neurotensin type I receptor starting at Thr43), MBP and TrxA-H10 fusion (from UniProt P20789) NTS1-7g, sequence (P20789 whole entry, looked up, change not shown, the tested form may be a part): as the sequence (P20789 whole entry A86L/F358A, looked up, the tested form may be a part) above, with L86A, A358F counted along it
# wild-type NTS1 (N-terminally truncated rat neurotensin type I receptor starting at Thr43), MBP and TrxA-H10 fusion (from UniProt P20789) NTS1-7f, sequence (P20789 whole entry, looked up, change not shown, the tested form may be a part): as the sequence (P20789 whole entry A86L/F358A, looked up, the tested form may be a part) above, with L86A, A358F counted along it
# wild-type NTS1 (N-terminally truncated rat neurotensin type I receptor starting at Thr43), MBP and TrxA-H10 fusion (from UniProt P20789) NTS1-7e, sequence (P20789 whole entry, looked up, change not shown, the tested form may be a part): as the sequence (P20789 whole entry A86L/F358A, looked up, the tested form may be a part) above, with L86A, A358F counted along it
# NTS1-7l, MBP and TrxA-H10 fusion (rat), sequence (P20789 43-424): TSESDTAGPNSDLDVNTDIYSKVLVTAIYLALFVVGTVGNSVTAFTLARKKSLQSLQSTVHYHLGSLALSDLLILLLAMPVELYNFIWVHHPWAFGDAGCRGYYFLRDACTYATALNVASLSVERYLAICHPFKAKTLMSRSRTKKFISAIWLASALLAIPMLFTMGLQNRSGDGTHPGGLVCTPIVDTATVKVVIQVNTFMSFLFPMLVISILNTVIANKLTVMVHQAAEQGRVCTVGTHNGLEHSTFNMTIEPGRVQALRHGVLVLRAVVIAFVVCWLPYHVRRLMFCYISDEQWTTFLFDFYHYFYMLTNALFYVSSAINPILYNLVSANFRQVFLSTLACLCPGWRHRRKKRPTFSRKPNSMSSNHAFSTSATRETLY
# NTS1-7o, MBP and TrxA-H10 fusion (rat), sequence (P20789 43-424): as above
# wild-type NTS1 (N-terminally truncated rat neurotensin type I receptor starting at Thr43), MBP and TrxA-H10 fusion (from UniProt P20789) A86L; I260A; F342A; F358A, sequence (P20789 whole entry A86L/I260A/F342A/F358A, looked up, the tested form may be a part): as the sequence (P20789 whole entry A86L/F358A, looked up, the tested form may be a part) above, with I260A, F342A counted along it
Substance,Kd [1] [nM],Kd [2] [nM],Ki [3] [nM],Kd [4] [nM]
"wild-type NTS1 (N-terminally truncated rat neurotensin type I receptor starting at Thr43), MBP and TrxA-H10 fusion (from UniProt P20789) A86L; F358A",–,–,0.58,–
"wild-type NTS1 (N-terminally truncated rat neurotensin type I receptor starting at Thr43), MBP and TrxA-H10 fusion (from UniProt P20789) A86L; I260A; F342A; F358A",–,–,1.2,–
"wild-type NTS1 (N-terminally truncated rat neurotensin type I receptor starting at Thr43), MBP and TrxA-H10 fusion (from UniProt P20789) NTS1-7e",–,–,0.91,0.14
"wild-type NTS1 (N-terminally truncated rat neurotensin type I receptor starting at Thr43), MBP and TrxA-H10 fusion (from UniProt P20789) NTS1-7f",–,–,0.73,0.04
"wild-type NTS1 (N-terminally truncated rat neurotensin type I receptor starting at Thr43), MBP and TrxA-H10 fusion (from UniProt P20789) NTS1-7o",–,–,0.22,–

# Next, values leading:
Kd [1] [nM],Kd [2] [nM],Ki [3] [nM],Kd [4] [nM],Substance
0.22,0.03,–,–,[^3H]-neurotensin (peptide)
–,–,2.8,0.21,"wild-type NTS1 (N-terminally truncated rat neurotensin type I receptor starting at Thr43), MBP and TrxA-H10 fusion (from UniProt P20789) NTS1-7g"
–,–,0.32,–,"wild-type NTS1 (N-terminally truncated rat neurotensin type I receptor starting at Thr43), MBP and TrxA-H10 fusion (from UniProt P20789) NTS1-7l"

# Source: article PMC2696590
